# According to patent US20180305431A1 (Novo Nordisk, published 2018):
# Legend:
# [1] = target: insulin receptor on primary rat adipocytes (rat) (UniProt P15127); experiment: cell-based or functional assay
# [2] = target: membrane-associated human IR-A (plasma membranes of BHK cells stably transfected with the human IR-A insert) (human) (UniProt P06213); experiment: SPA competition vs [125I-A14Y]-human insulin, membrane hIR-A, 0.1% HSA
# [3] = target: membrane-associated human IR-B (plasma membranes of BHK cells stably transfected with the human IR-B insert) (human) (UniProt P06213); experiment: SPA competition vs [125I-A14Y]-human insulin, membrane hIR-B, 0.1% HSA
# Chain of membrane-associated human IR-B (plasma membranes of BHK cells stably transfected with the human IR-B insert) (human) (P06213 28-1382): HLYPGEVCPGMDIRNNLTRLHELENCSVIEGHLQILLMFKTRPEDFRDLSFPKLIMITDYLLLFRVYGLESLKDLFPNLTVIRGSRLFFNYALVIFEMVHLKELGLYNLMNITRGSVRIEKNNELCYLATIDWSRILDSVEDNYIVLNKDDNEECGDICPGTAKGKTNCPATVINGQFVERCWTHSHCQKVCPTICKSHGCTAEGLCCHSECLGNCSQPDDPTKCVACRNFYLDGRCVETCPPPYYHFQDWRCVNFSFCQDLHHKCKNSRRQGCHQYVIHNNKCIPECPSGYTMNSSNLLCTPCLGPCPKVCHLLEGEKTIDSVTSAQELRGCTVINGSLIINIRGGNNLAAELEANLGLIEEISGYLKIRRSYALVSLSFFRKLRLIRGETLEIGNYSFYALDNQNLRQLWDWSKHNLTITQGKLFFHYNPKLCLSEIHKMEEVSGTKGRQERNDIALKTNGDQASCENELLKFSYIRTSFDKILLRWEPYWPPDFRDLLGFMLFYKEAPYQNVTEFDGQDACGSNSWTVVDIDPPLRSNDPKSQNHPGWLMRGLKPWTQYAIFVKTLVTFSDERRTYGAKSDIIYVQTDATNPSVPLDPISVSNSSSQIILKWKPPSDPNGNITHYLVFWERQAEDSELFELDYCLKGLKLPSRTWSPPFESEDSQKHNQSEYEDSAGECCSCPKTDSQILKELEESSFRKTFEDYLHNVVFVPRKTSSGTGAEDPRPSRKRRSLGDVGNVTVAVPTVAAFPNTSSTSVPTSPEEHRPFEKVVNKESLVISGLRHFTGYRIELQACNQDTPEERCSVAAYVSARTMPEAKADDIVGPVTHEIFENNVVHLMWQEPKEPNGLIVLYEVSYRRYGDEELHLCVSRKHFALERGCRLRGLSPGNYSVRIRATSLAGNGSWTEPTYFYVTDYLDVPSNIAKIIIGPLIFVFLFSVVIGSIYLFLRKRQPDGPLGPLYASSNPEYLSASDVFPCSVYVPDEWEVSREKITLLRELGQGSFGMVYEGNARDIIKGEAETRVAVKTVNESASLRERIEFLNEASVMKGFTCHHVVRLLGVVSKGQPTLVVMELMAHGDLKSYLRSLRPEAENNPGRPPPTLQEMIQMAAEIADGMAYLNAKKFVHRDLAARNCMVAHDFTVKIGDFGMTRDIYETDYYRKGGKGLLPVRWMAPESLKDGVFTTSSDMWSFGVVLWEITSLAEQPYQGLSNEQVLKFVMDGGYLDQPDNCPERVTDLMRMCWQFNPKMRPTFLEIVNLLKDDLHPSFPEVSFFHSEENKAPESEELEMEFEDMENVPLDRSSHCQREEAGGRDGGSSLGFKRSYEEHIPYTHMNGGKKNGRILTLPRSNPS
# Chain of insulin receptor on primary rat adipocytes (rat) (P15127 27-1383): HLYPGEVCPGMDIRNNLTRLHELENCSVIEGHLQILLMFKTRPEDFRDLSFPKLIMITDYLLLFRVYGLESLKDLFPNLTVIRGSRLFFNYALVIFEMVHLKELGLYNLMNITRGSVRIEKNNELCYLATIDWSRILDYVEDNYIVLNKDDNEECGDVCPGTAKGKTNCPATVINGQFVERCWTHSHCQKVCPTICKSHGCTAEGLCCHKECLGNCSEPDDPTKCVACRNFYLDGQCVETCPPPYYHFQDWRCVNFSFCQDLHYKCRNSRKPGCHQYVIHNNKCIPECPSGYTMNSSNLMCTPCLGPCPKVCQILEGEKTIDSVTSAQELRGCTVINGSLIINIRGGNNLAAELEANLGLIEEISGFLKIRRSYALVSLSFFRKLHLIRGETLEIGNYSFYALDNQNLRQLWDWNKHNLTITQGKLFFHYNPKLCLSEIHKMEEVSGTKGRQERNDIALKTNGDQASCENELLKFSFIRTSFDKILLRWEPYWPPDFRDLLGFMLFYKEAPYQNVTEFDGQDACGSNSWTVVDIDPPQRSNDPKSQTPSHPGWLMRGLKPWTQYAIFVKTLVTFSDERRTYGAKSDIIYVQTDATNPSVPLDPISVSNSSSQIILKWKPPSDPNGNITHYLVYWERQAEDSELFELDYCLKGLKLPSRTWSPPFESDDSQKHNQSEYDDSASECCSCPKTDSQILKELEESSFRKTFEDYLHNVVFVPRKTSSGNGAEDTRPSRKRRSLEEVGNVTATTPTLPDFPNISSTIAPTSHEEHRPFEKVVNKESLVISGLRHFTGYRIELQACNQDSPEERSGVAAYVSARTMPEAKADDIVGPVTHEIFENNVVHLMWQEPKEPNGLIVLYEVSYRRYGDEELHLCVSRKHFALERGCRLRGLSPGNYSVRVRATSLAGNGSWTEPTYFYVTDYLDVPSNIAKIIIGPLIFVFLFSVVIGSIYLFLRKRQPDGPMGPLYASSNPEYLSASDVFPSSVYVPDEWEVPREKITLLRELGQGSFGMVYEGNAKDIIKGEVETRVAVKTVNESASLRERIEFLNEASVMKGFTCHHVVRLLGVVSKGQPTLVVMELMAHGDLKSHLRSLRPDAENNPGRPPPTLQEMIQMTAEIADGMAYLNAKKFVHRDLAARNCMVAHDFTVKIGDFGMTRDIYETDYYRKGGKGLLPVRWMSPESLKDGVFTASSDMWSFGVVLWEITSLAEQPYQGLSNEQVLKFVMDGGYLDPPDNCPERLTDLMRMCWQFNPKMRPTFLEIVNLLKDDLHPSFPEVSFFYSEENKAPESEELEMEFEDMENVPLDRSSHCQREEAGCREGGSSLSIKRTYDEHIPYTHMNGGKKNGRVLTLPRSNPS
Substance,Lipogenesis 1% HSA (% rel to HI) [1],relative binding affinity (% rel to HI) [2],relative binding affinity (% rel to HI) [3]
"A22K(N(eps)tetradecanedioyl-4xgGlu), B3E, B28E, B29P, B30R human insulin (ligand)",19.5 % rel to HI,44.6 % rel to HI,94.5 % rel to HI
"A22K(N(eps)hexadecanedioyl-gGlu-2xOEG), B3E, B26E, B29R, desB30 human insulin (ligand)",–,34.4 % rel to HI,40.2 % rel to HI
"A22K(N(eps)Hexadecanedioyl-gGlu-2xOEG), B3E, B27E, B29R, desB30 human insulin (ligand)",3.2 % rel to HI,71.1 % rel to HI,72.1 % rel to HI
"A22K(N(eps)tetradecanedioyl-4xgGlu), B3E, B26E, B28E, B29R, desB30 human insulin (ligand)",20.5 % rel to HI,68 % rel to HI,111 % rel to HI
"A22K(N(eps)tetradecanedioyl-4xgGlu), B3E, B27E, B29R, desB30 human insulin (ligand)",11.1 % rel to HI,61.5 % rel to HI,119 % rel to HI
"A22K(N(eps)tetradecanedioyl-4xgGlu), B3E, B26E, B27P, B28R, desB29, desB30 human insulin (ligand)",78.8 % rel to HI,63.2 % rel to HI,90.7 % rel to HI
"A22K(N(eps)hexadecanedioyl-4xgGlu), B3E, B26E, B29R, desB30 human insulin (ligand)",–,29.1 % rel to HI,46.8 % rel to HI
"A22K(N(eps)hexadecanedioyl-gGlu-2xOEG), B3E, B27P, B28E, B29R, desB30 human insulin (ligand)",3.3 % rel to HI,31.2 % rel to HI,29.4 % rel to HI
"A22K(N(eps)tetradecanedioyl-gGlu-2xOEG), B3E, B27P, B28E, B29R, desB30 human insulin (ligand)",20.3 % rel to HI,75.6 % rel to HI,75.9 % rel to HI

# Further lines, results first:
Lipogenesis 1% HSA (% rel to HI) [1],relative binding affinity (% rel to HI) [2],relative binding affinity (% rel to HI) [3],Substance
17.9 % rel to HI,46.4 % rel to HI,76.2 % rel to HI,"A22K(N(eps)tetradecanedioyl-4xgGlu), B3E, B26E, B28E, B29P, B30R human insulin (ligand)"
3.7 % rel to HI,27.5 % rel to HI,32.1 % rel to HI,"A22K(N(eps)hexadecanedioyl-4xgGlu), B3E, B27P, B28E, B29R, desB30 human insulin (ligand)"
31.3 % rel to HI,66.9 % rel to HI,105 % rel to HI,"A22K(N(eps)tetradecanedioyl-4xgGlu), B3E, B26E, B29R, desB30 human insulin (ligand)"
26.4 % rel to HI,64.9 % rel to HI,93.7 % rel to HI,"A22K(N(eps)tetradecanedioyl-4xgGlu), B3E, B28D, B29R, desB30 human insulin (ligand)"
31.4 % rel to HI,76.5 % rel to HI,163 % rel to HI,"A22K(N(eps)tetradecanedioyl-4xgGlu), B3Q, B26E, B29R, desB30 human insulin (ligand)"
1.1 % rel to HI,25.7 % rel to HI,55.3 % rel to HI,"A22K(N(eps)hexadecanedioyl-4xgGlu), B3E, B27E, B29R, desB30 human insulin (ligand)"
4.4 % rel to HI,30.9 % rel to HI,38.2 % rel to HI,"A22K(N(eps)hexadecanedioyl-gGlu-2xOEG), B3E, B27E, B28E, B29R, desB30 human insulin (ligand)"
